As usually defined, the Kd is the free concentration of one partner at which half of the binding sites on the other are occupied at equilibrium, for simple one-to-one binding.

Among the data in article PMC6883375, “Enolase From Aspergillus fumigatus Is a Moonlighting Protein That Binds the Human Plasma Complement Proteins Factor H, FHL-1, C4BP, and Plasminogen” (Frontiers in Immunology, 2019) are Kd values, retold here.

The target of test [1] is Aspergillus fumigatus enolase (AfEno1), recombinant His-tagged (Aspergillus fumigatus) (UniProt Q96X30). The test is described as follows: BLI; His-tagged AfEno1 on Ni-NTA biosensors; factor H, C4BP or plasminogen as analyte; DPBS with 0.001% gelatin, RT; association 250 s, dissociation 250 s; 1:1 model; heat inactivated regulators as non-binding control. On the technique in general: BLI is a label-free optical method that tracks binding on a fibre tip over time.

The target of test [2] is T1, human factor H (human, UniProt P08603 19-1231).
T1 construct: complement factor H, human, 150-kDa plasma protein of 20 short conserved repeats (SCRs); also called NHS-derived factor H; serum-derived Factor H; source: bought: CompTech (purified human factor H); also in normal human serum (NHS)
The test is described as above. The note with it: both partners purified.

The target of test [3] is T2, human C4b binding protein (C4BP) (human, UniProt P04003 49-597; P20851 18-252).
T2 construct: also called NHS-derived C4BP; plasma-derived C4BP; source: bought: CompTech (purified human C4BP); also in normal human serum (NHS); copies: 7 + 1
T2 sequence 1: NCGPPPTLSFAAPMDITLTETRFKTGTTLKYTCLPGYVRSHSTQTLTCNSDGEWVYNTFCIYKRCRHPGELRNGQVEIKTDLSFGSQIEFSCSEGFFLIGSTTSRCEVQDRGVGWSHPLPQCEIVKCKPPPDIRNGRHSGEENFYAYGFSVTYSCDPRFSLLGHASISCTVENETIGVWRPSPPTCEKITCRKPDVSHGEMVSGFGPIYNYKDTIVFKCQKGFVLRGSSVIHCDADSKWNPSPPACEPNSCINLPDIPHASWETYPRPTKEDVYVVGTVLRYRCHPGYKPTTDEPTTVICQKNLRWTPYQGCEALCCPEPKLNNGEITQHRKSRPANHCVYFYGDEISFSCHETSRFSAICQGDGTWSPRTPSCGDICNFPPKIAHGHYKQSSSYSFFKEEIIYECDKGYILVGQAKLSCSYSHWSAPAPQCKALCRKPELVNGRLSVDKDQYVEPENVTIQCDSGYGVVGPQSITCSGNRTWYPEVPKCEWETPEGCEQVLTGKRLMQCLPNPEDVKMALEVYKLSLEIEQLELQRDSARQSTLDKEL
T2 sequence 2: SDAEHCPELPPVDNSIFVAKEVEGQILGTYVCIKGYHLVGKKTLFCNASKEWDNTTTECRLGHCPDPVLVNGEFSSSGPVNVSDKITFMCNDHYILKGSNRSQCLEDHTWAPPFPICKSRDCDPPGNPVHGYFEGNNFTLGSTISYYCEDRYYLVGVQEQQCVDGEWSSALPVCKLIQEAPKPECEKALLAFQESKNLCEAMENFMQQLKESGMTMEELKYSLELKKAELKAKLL
The test is described as above. The note with it: both partners purified.

Test [4] concerns the target T1, human factor H. As to the kind of experiment: not stated; data not shown; method and format not told.

T1 sequence (P08603 19-1231): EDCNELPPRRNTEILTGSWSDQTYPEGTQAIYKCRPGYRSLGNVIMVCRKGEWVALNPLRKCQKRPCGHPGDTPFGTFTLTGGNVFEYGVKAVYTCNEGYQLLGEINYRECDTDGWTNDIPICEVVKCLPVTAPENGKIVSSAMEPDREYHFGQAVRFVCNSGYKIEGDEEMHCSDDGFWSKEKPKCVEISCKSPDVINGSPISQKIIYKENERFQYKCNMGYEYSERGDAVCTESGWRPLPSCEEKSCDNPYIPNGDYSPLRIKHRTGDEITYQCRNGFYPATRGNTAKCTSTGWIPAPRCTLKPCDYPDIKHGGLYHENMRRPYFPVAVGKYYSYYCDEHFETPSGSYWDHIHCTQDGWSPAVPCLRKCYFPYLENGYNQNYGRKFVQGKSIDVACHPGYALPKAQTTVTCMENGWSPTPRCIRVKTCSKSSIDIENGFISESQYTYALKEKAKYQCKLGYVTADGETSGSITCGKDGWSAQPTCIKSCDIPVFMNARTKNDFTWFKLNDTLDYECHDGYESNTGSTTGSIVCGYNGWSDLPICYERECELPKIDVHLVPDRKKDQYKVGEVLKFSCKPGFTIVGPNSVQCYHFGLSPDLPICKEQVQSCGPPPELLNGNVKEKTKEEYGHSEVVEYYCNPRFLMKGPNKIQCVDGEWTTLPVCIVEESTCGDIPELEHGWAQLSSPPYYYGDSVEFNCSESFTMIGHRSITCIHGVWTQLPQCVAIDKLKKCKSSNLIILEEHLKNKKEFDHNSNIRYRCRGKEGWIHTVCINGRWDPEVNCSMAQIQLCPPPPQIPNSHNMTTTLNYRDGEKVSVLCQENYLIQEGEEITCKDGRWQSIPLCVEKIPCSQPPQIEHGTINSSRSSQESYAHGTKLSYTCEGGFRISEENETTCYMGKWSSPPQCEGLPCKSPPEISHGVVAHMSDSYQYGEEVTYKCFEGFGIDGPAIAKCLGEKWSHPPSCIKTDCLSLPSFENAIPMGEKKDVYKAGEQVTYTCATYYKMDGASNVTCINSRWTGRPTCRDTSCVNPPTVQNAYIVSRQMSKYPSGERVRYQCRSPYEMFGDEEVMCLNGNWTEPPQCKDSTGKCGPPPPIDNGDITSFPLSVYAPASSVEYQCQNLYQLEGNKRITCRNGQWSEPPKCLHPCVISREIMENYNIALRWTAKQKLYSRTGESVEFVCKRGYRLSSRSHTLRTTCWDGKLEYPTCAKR

Consider human plasminogen (natural protein), for which, in test [1], the Kd was found to be 530 nM.

B1: Aspergillus fumigatus enolase (AfEno1), recombinant His-tagged (natural protein)
chain: MPISKIHARSVYDSRGNPTVEVDVVTETGLHRAIVPSGASTGQHEAHELRDGDKTQWGGKGVLKAVKNVNETIGPALIKENIDVKDQSKVDEFLNKLDGTANKSNLGANAILGVSLAVAKAGAAEKGVPLYAHISDLAGTKKPYVLPVPFQNVLNGGSHAGGRLAFQEFMIVPDSAPSFSEALRQGAEVYQKLKALAKKKYGQSAGNVGDEGGVAPDIQTAEEALDLITEAIEQAGYTGKIKIAMDVASSEFYKADVKKYDLDFKNPESDPSKWLTYEQLADLYKSLAAKYPIVSIEDPFAEDDWEAWSYFYKTSDFQIVGDDLTVTNPGRIKKAIELKSCNALLLKVNQIGTLTESIQAAKDSYADNWGVMVSHRSGETEDVTIADIAVGLRSGQIKTGAPCRSERLAKLNQILRIEEELGENAVYAGSKFRTAVNL
notes: enolase (AfEno1, allergen Aspf22) of Aspergillus fumigatus; the gene was cloned with six His residues added at the N-terminus; Vector printed as 'pET 4.1 a'; also called Aspf22; recombinant AfEno1; source: E. coli BL21 (DE3), purified (Ni-NTA, HisTrap); not shown: His6, N-terminal, kept
In the case of B1, the Kd worked out at 528 nM in test [2] and 131 nM in test [3].

B2: Candida albicans Pra1 (pH-regulated antigen 1) (natural protein)
chain: APVTVTRFVDASPTGYDWRADWVKGFPIDSSCNATQYNQLSTGLQEAQLLAEHARDHTLRFGSKSPFFRKYFGNETASAEVVGHFDNVVGADKSSILFLCDDLDDKCKNDGWAGYWRGSNHSDQTIICDLSFVTRRYLTQLCSSGYTVSKSKTNIFWAGDLLHRFWHLKSIGQLVIEHYADTYEEVLELAQENSTYAVRNSNSLIYYALDVYAYDVTIPGEGCNGDGTSYKKSDFSSFEDSDSGSDSGASSTASSSHQHTDSNPSATTDANSHCHTHADGEVHC
notes: pH-regulated antigen 1 (Pra1) of Candida albicans; the construct is not described; also called C. albicans Pra1
For B2, the affinity in test [4], expressed as Kd, was 1.87 nM.
